According to the nanobody polyreactivity screen of Harvey et al. (2022):

Experiment: yeast display, Sf9 membrane polyspecificity reagent, FACS + sequencing; frameworks hold sequencing errors
Method in brief: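 Galactose induction of a Saccharomyces cerevisiae BJ5465 synthetic nanobody display library ran 36–48 hours. The cells were then stained for 1 hour at 4 °C with 10% biotinylated, detergent-solubilized Sf9 membrane reagent, pulled down on streptavidin microbeads and FACS-sorted into low and high (top ~1%) gates on expression and reagent-binding fluorescence. Labels for polyreactivity follow the gate of origin.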

Sequence | polyreactivity (PSR sort gate)
QVQLVESGGGLVQAGGSLRLSCAASGFTFRQNAMGWYIQAPGKERELVAAISRGGGGTHYADSVKGRFTISRDNAKNNVYLHMNSLKPEDTAVYYCAKRRYPTFVVPVYYWGQGTQVTVSS | high polyreactivity
QVQLVESGGGLVQAGGSLRLSSAASGSIFNYNAMGWYRQAPGKERELVAAISSSGSTNYADSVKGRFTISRDNAKNTVYLQMNSLKPEDTAVYYCAADYGSYGVVRAVSIEYEYWGQGTQVTVSS | low polyreactivity
QVQLVESGGGLVQAGGSLRLSCAASGSIFASYAMGWYRQAPGKERELVAAISRSGTSTRYADSVKGRFTISRDNAKNTVYLQMNSLKPEDTAVYYCAARWYVFFRKYDYWGQGTQVTVSS | high polyreactivity
QVQLVESGGGLVQAGGSLRLSCAASGSTFRNYAMGWYRQAPGKERELVAAISGSGGRTNYADSVKGRFTISRDNAKNTVYLQMNSLKPEDTAVYYCNGRFPDWALSEISHSTTYGYWGQGTQVTVSS | low polyreactivity
QVQLVESGGGLVQAGGSLRLSCAASGLTFYTNAMGWYRQAPGKERELVAAITSSGGRTYYADSVKGRFTISRDNAKNTVYLQMNSLKPEDTAVYYCAADARRPSIPEMYYCGQGTQVTVSS | high polyreactivity
QVQLVESGGGLVQAGGSLRLSWAASGFTLTRNAMGWYTQAPGKERELVAAISWSGGTTYYADSVKGRFTISRDNAKNPVYLQMNSLKRDDTAVYYCNTASWRAQYYYWGQGTRVTVSS | high polyreactivity
QVQLVESGGGLVQAGGSLRLSCAASGRTFYYYAMGWYIPAPGKERELVARISYSGSNTYYADSVKGRFTISRDTAKNTVYLQMNSLKREVTAGYYCAAGYLVWRDSATLDYWGQGTQVTVSS | high polyreactivity
QVQLVESGGGLVQAGGSLRLSCAASGRTFITYAMGWYRQAPGKERELVAAISWNGGTTYYADSVKGRFTISRDNAKNTVYLQMNSLKPEDTAVYYCAAYRWYSAARMGYWGQGTQVTVSS | high polyreactivity
QVQLQESGGGLVQAGGSLRLSCAASGNIFSSGVMGWYRQAPGKERELVATINVGANTNYADSVKGRFTISRDNAKNTVYLQMNRLKPEDTAVYYCAVDKGDDGSFYLWGQGTQVTVSS | high polyreactivity
QVQLVESAGGLVQAGGSIRLSCAASGNIFFVYDMGWYRQAPGKERELVAAISWSGGSTYADSVKGRFTISRDNAKNTVYLQMNSLKPEDTAVYYWAASYGVYWYSFWYHVAWLDYWGQGTQVTVSS | low polyreactivity
QVQLVESGGGLVQAGGSLRLSCAASGRIFRPYAMGWYRQAPGKERELVASMSWRGSSTYYADSVKGRFTISRDNAQNTVYLQMNSLKPEDTAVYYCAARRYPTSGYGYWGQGTQVTVSS | high polyreactivity
QVQLVESGGGLVQAGGSLRLSCAASGFTFQYYAMGCYRQAPGKERELVAAISARDGSTYYADSVKGRFTISRDNAKNTVYLQMNSLKPEDTAVYYCAARSNYRNAYAYYYWGQGTQVTVSS | high polyreactivity
QVQLVESGGGLVQAGGSLRLSCAASGRIFFDYAMGWYRQAPGKERELVAAISSGGSRTYYADSVKGRFTISRDNAKNTVYLQMNSLKPEDTAVYYCAADSTVYQDEYWGQGTQVTVSS | high polyreactivity
QDQLVESVGGLVQAGVSLRLSCAASGSTLRKYAMGWYRQAPGKESELVAAISNSGGGTYYADSVKGRFTISRDNAKNTVYLQMNSLKPEDTAVYYCAARYGPSYGYGLYYPRRDYWGQGTQVTVSS | high polyreactivity
QVQLVESGGGLVQAGGSLRLICAASGSTFFSYAMGWYRPAPGKERQLVAAITRSGGSTYYADSVKGRFTISRDNAKNTVFLQMNSLKPEDTAVYYCNADLGIGYDYWGQGTHVTVSS | high polyreactivity
QVQLEESGGGLDQAGGSLRLSCAASAIIFALYARGWYSQARGKHRELVATITYSGGSTNYADSLKGRYTISRDNAKNPVYLLMHSLKPEDTAVYYCAAASVPWGGYYSGQGTQVTVSS | low polyreactivity
QVQLVESGGGLVQAGGSLRLSCAASGRTLRTYTMGWYRQAPGKERELVAAISSSDDSTYYADSVKGRFTISRDNEKNTVYLQMNSLKPEDNAVYSCAKDGLYPTEYGYWGQGTQVTVSS | high polyreactivity
QVQLVESGGGLVQAGGSLRLSCAASGSIFGQNAMGWYRQAPGKERELVAAITTSRGSTYYADSVKGRFTISRDNPKNTVDFQMNSLNPEDTAVYYCAARYVTPGYIIYVYWGQGTQVTVSS | high polyreactivity
QVHLVESGGGLVQAGGSLRLSCAASGRTFPSNVMGWYRQAPGKERELVAGITWRGASTYYADSVKGRFTISRDNAKNTVYLQMNSLKPEDTAVYYCAVRTQYRRYEYWGQGTKVTVSS | high polyreactivity
QVQLVESGGGLVQAGGSLRLSCAASGRIFWHNTMGWYRQAPGKERELVATITGGDGNTYYADSVKGRFTISRDNAKNTVYLQMNSLKPEDNAVYYCAKAIVSYDYGRYGKWHEYWGQGTQVTVSS | low polyreactivity
QVQLVESGGGLVQAGRSLRLSCAASGRIFFGYAMGWYRQAPGKERELVAVISSGCRTYYADSVKGRFTISRDNAKNTVYLQMNSLKAEDTAVYYCAAIIPPTKQRGYYYVGRSEYDYWGQGSQVTVSS | low polyreactivity
QVQLVESGGGLVQAGGSLRLSCAASGSTFDQNTMGWYREAPGKERELVASITGGDSTNYADSVKGRFTISRDNAKNTVYLQMNSLKPEDTAVYYCAADKLYQPGIGDDYWGQGTQVTVSS | low polyreactivity

Sequence | polyreactivity (PSR sort gate)
QVQLVESGGGLVQAGGSLRLSCAASGRTITRNAMGWYRQAPGKERELVASINRGGITYYADSVKGRFTISRDNAKNTVYLQMNSLKPEDTAVYYCATRPWRSPWGYYDYWGQGTQVTVSS | high polyreactivity
QVQLVESGGGLVQAGGSLRLSCAASGIILYVNAMGWYRQAPGKERELVAAISWGGGSTYYADSVKGRFTISRDNAKNTVYLQMNSLKPEDTAVYYCAAEFWSGYPTYTYDYWGQGTQVTVSS | low polyreactivity
QVQLVESGGGLVQAGGSLRLSCAASGSIFYWYAMGWYRQAPGKERELVAAISSSGSTNYADSVKGRFTISRDNAKNTVYLQMNSLKPEDTAVYYCAAYRTGYNGWGYGYWGQGTQVTVSS | high polyreactivity
QVQLVESVGGLVQAGGSLRLSCAASRIFRGYAMGRYRQAPGKERELVAAIRRGGSTNYADSVKGRFTISRDNAKNSVYFQMNSLKPEDTEVYYCAADFYYDRDVDYWGQGTQVTVSS | high polyreactivity
QVQLVESGGGLVQAGGSLRLSCAASGLILKYYAMGWYRQAPGKEREFVAAISSSGTRTYADSVKGRFTISRDNAKNTVYLQMNSLKPEDTAVYYCAKDYRVWVAATIAHDYWGQGTQVTVSS | low polyreactivity
QVQLVESGGGLVQAGGSLRLSCAASGSTFATYAMGWYRQAPGKERELVAVITLGGRTYYADSVKGRFTISRDNAKNTVYLQMNSLKPEDTAVYYCAAKAYTYYARIGFDYWGQGTQVTVSS | high polyreactivity
QVQLVESGGGLVQAGGSLRLSCAASGNTFPSYAMGWYRQAPGKERQLVAAITSGGRTYYADSVKGRFTISRDNAKNTVYLQMNSLKPEDTAVYYCAADWVVRYPWYRYYYWGPGTQVTVSS | high polyreactivity
EEELVESGGGLVQAGGRLRLSCAASGRIFDYNAMGWYRQAPAKQRELVAVIDYSGDSTYYADSVKGRFTISRDNAKNTVYLQLISLKPEDTAVYYCNADSRYSYSDYGYWGQGTQVNVSS | low polyreactivity
QVQLVESGGGLVQAGGSLRLSCAASGFTFRYYAMGWYRQAPGKEREFVAAITYNGVSTYYADSVKGRFTISRDNAKNTVYLQMNSLKPEDTAVYYCAAGWYYYARPRVYNAREYYYWGQGTQVTVSS | high polyreactivity
QVQLVESGGGLVQAGGSLRLSCAASGSTFSRYAMGWYRQAPGKERELVAAISSSGGSTYYADSVKGRFTISRDTAKNTVYLQMNSLKPEDTAVYYCAVSHKYYGRRDYWGQGTQVTVSS | high polyreactivity
QVQLVESGGGIVQAGGSLRLSCAASGRTFRINGMGWYRQAPGKERELIAAISDGGSTNYADSVKGRFTISRDNAKNTVYLQMNSLKPEDTAVYYCAVDPYYFFYDEWLGDPNFDYWGQGTQVTVSS | low polyreactivity
QVQLVESGGGLVQAGGSLRLSCAASGYTFPLYAMGWYRQAPGKERELVADINIGGASTYYADSVKGRFTISRDNAKNTVYLQKNSLKPEDTAVYYCAKEYYDGYFPTFDSDYWGQGTQVTVSS | low polyreactivity
QVQLVESGGGLVQAGGSLRLSCAASGRIFHKYDMGWYRQAPGKERELVAAITTSGGSTYYADSVKGRFTISRDNAKNTVYLQMNSLKPEDTAVYYCADSWSRRERGFDYWGQGTQVTVSS | high polyreactivity
QVQLVESGGGLVQAGGSLRLSCAASGITFYQYVMGRYRQAPGKERELVAAISTSGDSTYYADYVKGRFTISRDNAKNTVYLQINSLKTEDTAVYYCATYWSGHYYYWGQGTQVTVSS | high polyreactivity
QVQLVESGGGLVQAGGSLRLSCAASGSIFYINDAMGWYRQPPGKERELVAAISSSDGTTYYADSVKGRFTISRDNAKNTVYLQMNSLKPEDTAGYYCAAETRAVGYDGDYWGQGTQVTVSS | high polyreactivity
QVQLVESGGGLVQAGGSLRLSCAASGLTFAYNGLGWYRQAPGKEGELVAEISASGASTYYADSVKGRFTISRDNAKNTVYLQMNSLKPEDTAVYYCAAPAPYDGHYSIYSWAYTDDYWGQGTQVTVSS | low polyreactivity
QVQLVESGGGLVQAGGSLRLSCAASGSTFYPYAMGGYRQAPGKERELVARITQNGGSTYYADSVKGRFKISRDNAKNPVYLQMNSLKPEDTAVYYCADRWISVLSYGKYDYCGQGTQVTVSS | high polyreactivity
QVQLVESGGGLVQAGGSLRLSCAASGRTFKYYAMGWYRQAPGKERELVAAISVSGGRTYYADSVKGRFTISRDNAKNTVYLQMNSLKPEDTAVYYCNAVRYVHPEDYWGQGTQVTVSS | high polyreactivity
QVQLVESGGGLVQAGGSLRLICAASGLTFDVNAMGWYRQAPGKERELVAAITADDGSTYYADSVKGRFTISRDNAKNTVYLQMNSLKPEDTAVYYCNADTRTQGPYSAPYYREMNYWGQGTQVTVSS | low polyreactivity
QVQLVESGGGLVQAGGSLRLSSAASGRIFRWYAMGWYRQAPGKERELVATISSTGGSTYYADSVKGRFTISRDNAKNTVYLQMNSLKPEDTAVYYSNAVVYGIFLYAWYDYWGQGTQVTVSS | low polyreactivity
QVQLVESGGGLVQAGGSLRLSCAASGSIFFYAMGWYRQAPGKERELVAGITSGGSTYYADSVKGRFTISRDNAKNTVYLQMNSLKPEDTAVYYCAARRRGYKYTYNSWGQGTQVTVSS | high polyreactivity
